# Test results from US20250313626A1 (HARBOUR BIOMED SHANGHAI, published 2025).
# Tests used:
# [1] = biological target: T1, CD200R1a on PathHunter Jurkat CD200R1a signaling cells (Eurofins DiscoverX, 93-1136C19) (human, UniProt Q8TD46 25-348); assay: cell-based or functional assay
# T1 sequence: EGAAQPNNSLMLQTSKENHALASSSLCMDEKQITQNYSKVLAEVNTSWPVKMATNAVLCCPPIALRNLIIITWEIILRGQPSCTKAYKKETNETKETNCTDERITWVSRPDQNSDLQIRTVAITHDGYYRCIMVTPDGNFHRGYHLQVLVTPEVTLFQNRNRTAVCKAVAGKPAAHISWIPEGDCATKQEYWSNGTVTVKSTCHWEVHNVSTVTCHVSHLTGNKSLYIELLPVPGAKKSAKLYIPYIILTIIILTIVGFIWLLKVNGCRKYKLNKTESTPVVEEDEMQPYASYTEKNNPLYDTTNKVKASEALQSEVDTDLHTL
# [2] = biological target: T2, Cynomolgus macaques CD200R1 isoform a on CHOK1 cells (CHOK1/cynoCD200R1a) (Cynomolgus macaques); assay: flow cytometry, CHOK1/cynoCD200R1a cells; table beside the curves, head without unit, x axis Log [Ab] (nM)
# T2 chain: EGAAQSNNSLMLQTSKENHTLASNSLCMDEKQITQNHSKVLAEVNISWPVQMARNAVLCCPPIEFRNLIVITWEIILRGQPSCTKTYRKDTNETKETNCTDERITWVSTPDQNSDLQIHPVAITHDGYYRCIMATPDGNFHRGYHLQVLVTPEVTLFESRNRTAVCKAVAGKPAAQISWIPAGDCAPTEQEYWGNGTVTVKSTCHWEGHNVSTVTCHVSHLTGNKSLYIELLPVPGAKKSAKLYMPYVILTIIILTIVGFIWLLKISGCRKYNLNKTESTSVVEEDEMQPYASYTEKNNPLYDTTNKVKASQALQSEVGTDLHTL
# Procedure: (§1) This example is intended to investigate the in vitro binding activity of human anti-CD200R1 monoclonal antibodies to human/Cynomolgus macaques CD200R1a expressed on the surface of cells. The anti-CD200R1 antibodies were produced as described in Example 3.4 and the binding experiments at the cell level were performed using CHOK1/hCD200R1a and CHOK1-cynoCD200R1a.
# Briefly, CHOK1/hCD200R1a cells and CHOK1-cynoCD200R1a cells were digested, and collected, and then were resuspended in PBS containing 2% BSA, respectively. The cell density was adjusted to 1×10⁶ cells/mL. The cells were seeded in a 96-well V-bottom plate (Corning, #3894) at 100 μL/well, followed by the addition of test antibodies and reference antibodies in a series diluted concentration, each at 100 μL/well. The cells were incubated away from light at 4° C. for 1 h. Thereafter, the cells in each well were rinsed twice with 100 μL of pre-cooled PBS containing 2% BSA, and centrifuged at 500 g at 4° C. for 5 min, and then the supernatant was discarded. […] Finally, the cells in each well were resuspended in 200 μL of pre-cooled PBS containing 2% BSA, and the fluorescence signal values were read using a BD CantoII flow cytometer.
# [3] = biological target: T2, Cynomolgus macaques CD200R1 isoform a …; assay: as above
# Procedure: as §1
# (§2) Briefly, CHOK1/hCD200R1a cells and CHOK1-cynoCD200R1a cells were digested, and collected, and then were resuspended in PBS containing 2% BSA, respectively. The cell density was adjusted to 1×10⁶ cells/mL. The cells were seeded in a 96-well V-bottom plate (Corning, #3894) at 100 μL/well, followed by the addition of test antibodies and reference antibodies in a series diluted concentration, each at 100 μL/well. The cells were incubated away from light at 4° C. for 1 h. Thereafter, the cells in each well were rinsed twice with 100 μL of pre-cooled PBS containing 2% BSA, and centrifuged at 500 g at 4° C. for 5 min, and then the supernatant was discarded. 100 μL of fluorescent secondary antibody (Alexa Fluor 488-conjugated AffiniPure Goat Anti-Human IgG, Fcγ Fragment Specific, Jackson, #109-545-098, diluted in a 1:1000 ratio) was added in each well, and the plate was incubated away from light at 4° C. for 1 h. The cells in each well were rinsed twice with 100 μL of pre-cooled PBS containing 2% BSA, and centrifuged at 500 g at 4° C. for 5 min, and then the supernatant was discarded. Finally, the cells in each well were resuspended in 200 μL of pre-cooled PBS containing 2% BSA, and the fluorescence signal values were read using a BD CantoII flow cytometer.
# [4] = biological target: T3, human CD200R1 isoform a on CHOK1 cells (CHOK1/hCD200R1a) (human, UniProt Q8TD46 25-348); assay: flow cytometry, CHOK1/hCD200R1a cells; table beside the curves, head without unit, x axis Log [Ab] (nM)
# T3 construct: also called CHOK1/CD200R1a
# T3 sequence: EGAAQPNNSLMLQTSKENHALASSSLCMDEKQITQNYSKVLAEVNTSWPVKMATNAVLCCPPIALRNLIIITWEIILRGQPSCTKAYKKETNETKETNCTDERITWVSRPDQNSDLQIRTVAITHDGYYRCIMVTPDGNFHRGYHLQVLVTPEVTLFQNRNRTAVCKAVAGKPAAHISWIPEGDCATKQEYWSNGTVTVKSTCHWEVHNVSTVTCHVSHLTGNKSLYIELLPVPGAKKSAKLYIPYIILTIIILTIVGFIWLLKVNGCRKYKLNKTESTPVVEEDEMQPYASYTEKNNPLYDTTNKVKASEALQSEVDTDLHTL
# Procedure: as §1, §2
# [5] = biological target: T3, human CD200R1 isoform a on CHOK1 cells …; assay: flow cytometry, CHOK1/hCD200R1a cells (FITC-Mean); table beside the curves, head without unit, x axis Log [Ab] (nM)
# [6] = biological target: T3, human CD200R1 isoform a on CHOK1 cells …; assay: flow cytometry blocking assay: antibody titrated against human CD200 binding to CHOK1/hCD200R1a cells
# [7] = biological target: T2, Cynomolgus macaques CD200R1 isoform a …; assay: flow cytometry, CHOK1/cynoCD200R1a cells (APC-A Mean); table beside the curves
# [8] = biological target: T1, CD200R1a on PathHunter Jurkat CD200R1a …; assay: cell-based or functional assay; remark: listed apart in the source
# [9] = biological target: T3, human CD200R1 isoform a on CHOK1 cells …; assay: flow cytometry, CHOK1/hCD200R1a cells (FITC-Mean); table beside the curves
# Procedure: as §1, §2
# [10] = biological target: T3, human CD200R1 isoform a on CHOK1 cells …; assay: flow cytometry blocking assay: biotin-labelled human CD200 binding to CHOK1/hCD200R1a cells; y axis Inhibition %
# Procedure: In brief, CHOK1/hCD200R1a cells were digested and resuspended in 2% BSA in PBS. […] The cells were placed at 4° C. and incubated for 1 hour in the dark. […] 100 μL/well of pre-cooled PBS containing 2% BSA was added to rinse the cells twice, centrifugation was performed at 500 g, 4° C. for 5 minutes, and the supernatant was discarded. Fluorescent secondary antibody (PE Streptavidin, BD, Cat #: 554061, 1:200) was added at 100 μL/well, and incubation was performed at 4° C. for 30 minutes in the dark. The cells were washed twice with 200 μL/well of pre-cooled PBS, and were centrifuged at 500 g, 4° C. for 5 minutes, and the supernatant was discarded. Finally, 200 μL/well of pre-cooled PBS was used to resuspend the cells, and the fluorescence signal values were read using ACEA Novocyte 3000 flow cytometer. IC50 values were calculated.
Binder,"IC50 of the inhibition of CD200-induced PathHunter Jurkat CD200R1a luminescence (CHOK1/hCD200 cells as CD200 source); head without unit, x axis Log [Ab] (nM) [1] [nM]",EC50 [2] [nM],EC50 [3] [nM],EC50 [4] [nM],EC50 [5] [nM],IC50 (read off the curve) [6] [nM],EC50 [7] [nM],MFI (MAX) [7],IC50 of the inhibition of CD200-induced PathHunter Jurkat CD200R1a luminescence (CHOK1/hCD200 cells as CD200 source) [8] [nM],MFI(Max) [9],Blocking(Max) [10] [%]
"PR005509 (antibody, human IgG1, kappa, L234A L235A, V domains shown) VH: QVQLVESGGGVVQPGRSLRLSCAASGFTFSSYGFHWVRQAPGKGLEWLGLIWSDGSNKYYADSVKGRFTISRDNSKNTLYLQMNSLRAEDTAVYYCARDRIVGAGFDYWGQGTLVTVSS VL: not shown",2.47,4.2,–,–,–,–,–,–,–,–,–
"PR005474 (antibody, human IgG1, kappa, L234A L235A, V domains shown) VH: QVQLVESGGGVVQPGRSLRLSCAASAFTFSSYGMHWVRQAPGKGLEWVALIWNDGSNKFYADSVKGRFTISRDNSKNTLFLQMNSLRAEDTAVYYCARDRILGAGFDYWGQGTLVTVSS VL: not shown",7.75,–,3.34,9.36,–,–,–,–,–,–,–
"PR007973 (antibody, human IgG1, kappa, V domains shown, PTM variant of PR006839 (human IgG1)) VH: QVQLVESGGGVVQPGRSLRLSCAASGFTFSSYGFHWVRQAPGKGLEWLGIIWSDASNKYYADSVKGRFTISRDNSKNTLYLQMNSLRAEDTAVYYCARDRIVGEGFDYWGQGTLVTVSS VL: not shown",–,–,–,–,0.339,~10,–,–,–,–,–
"PR006480 (antibody, human IgG1, kappa, L234A L235A, also called PR6480) heavy: not shown light: DIQMTQSPPSLSASVGDRVTITCRASQSISSYLNWFQQKAGKAPKLLISATSNLQSGVPSRFSGSGSGTDFTLTISSLQPEDLATYYCQQSYSSPYTFGQGTKVEIKRTVAAPSVFIFPPSDEQLKSGTASVVCLLNNFYPREAKVQWKVDNALQSGNSQESVTEQDSKDSTYSLSSTLTLSKADYEKHKVYACEVTHQGLSSPVTKSFNRGEC",4.55,–,2.98,33,–,–,19.5,34600,0.654,8890,61
"PR007221 (antibody, human IgG1, kappa, PTM variant of PR006895 (human IgG1)) heavy: not shown light: DIQLTQSPPSLSASVGDRVTITCRASQSISSYLNWFQQKAGKAPKLLISATSNLQSGVPSRFSGSGSGTDFTLTISSLQPEDLATYYCQQTLSSPYTFGQGTKVEIKRTVAAPSVFIFPPSDEQLKSGTASVVCLLNNFYPREAKVQWKVDNALQSGNSQESVTEQDSKDSTYSLSSTLTLSKADYEKHKVYACEVTHQGLSSPVTKSFNRGEC",–,–,–,–,–,–,7.37,53300,–,11100,80.4
"PR007223 (antibody, human IgG1, kappa, PTM variant of PR006895 (human IgG1)) heavy: not shown light: DIQLTQSPPSLSASVGDRVTITCRASQSISSYLNWFQQKAGKAPKLLISATSNLQSGVPSRFSGSGSGTDFTLTISSLQPEDLATYYCQQTYSSPYTFGQGTKVEIKRTVAAPSVFIFPPSDEQLKSGTASVVCLLNNFYPREAKVQWKVDNALQSGNSQESVTEQDSKDSTYSLSSTLTLSKADYEKHKVYACEVTHQGLSSPVTKSFNRGEC",–,–,–,–,–,~10,8.11,54200,0.578,9890,88
"PR002906 (antibody, V domains shown, also called recombinant IgG1 antibody of huDX182) VH: QVQLQESGPGLVKPSETLSLTCTVSGYTITSGYDWSWIRQPPGKGLEWIGYINYGGSTNYKPSLGSRVTISVDTSKNQFSLKLSSVTAADTAVYYCARYNEYKSYIYDWYFDFWGQGTLVTVSS VL: DIQMTQSPSSLSASVGDRVTITCKASKNIRSYLAWYQQKPGKAPKLLIYSGSTLHSGVPSRFSGSGSGTDFTLTISSLQPEDFATYYCQQHHEYPLTFGQGTKVEIKR",–,15.5,20.8,14.8,0.436,–,21.4,26800,–,11100,95.4
